Tests used:
[1] = molecular target: T1, EGFR (form used in the assay not stated) (human, UniProt P00533 25-645, limits assumed); experiment: ELISA, NEM conjugate, 100 nM
[2] = molecular target: T1, EGFR (form used in the assay not stated); experiment: ELISA, NEM conjugate, 500 nM
[3] = molecular target: T1, EGFR (form used in the assay not stated); experiment: ELISA, NEM conjugate, 10 nM
[4] = molecular target: T2, human c-Met on cells (NCI-H441, NCI-H292, U87-MG) (human, UniProt P08581 25-1390); experiment: cell-based or functional assay
[5] = molecular target: T3, recombinant c-Met extracellular domain (human, UniProt P08581 16-932); experiment: SPR kinetic analysis as in Example 2
T3 construct: Construct used for SPR is not described further (may be the Fc chimera, as the protocol captures on anti-human Fc)

[6] = molecular target: T4, Recombinant human c-Met Fc chimera (human, UniProt P08581 16-932); experiment: competition with biotinylated HGF on plate-coated c-Met-Fc
T4 construct: whole c-Met entry named; also called c-Met-Fc fusion protein

[7] = molecular target: T2, human c-Met on cells (NCI-H441, …); experiment: NCI-H441 cell binding, anti-His fluorescence
Experimental: Purified FN3 domains (50 μL/well; 0 to 1000 nM) were added to the cells for 1 hour at 4° C. in duplicate plates. Supernatant was removed and cells were washed three times with FACS stain buffer (150 μL/well, BD Biosciences, cat #554657). Cells were incubated with biotinylated-anti HIS antibody (diluted 1:160 in FACS stain buffer, 50 μL/well, R&D Systems, cat # BAM050) for 30 minutes at 4° C. Cells were washed three times with FACS stain buffer (150 μL/well), after which wells were incubated with anti mouse IgG1-Alexa 488 conjugated antibody (diluted 1:80 in FACS stain buffer, 50 μL/well, Life Technologies, cat # A21121) for 30 minutes at 4° C. Cells were washed three times with FACS stain buffer (150 μL/well) and left in FACS stain buffer (50 μL/well). Total fluorescence was determined using an Acumen eX3 reader. Data were plotted as raw fluorescence signal against the logarithm of the FN3 domain molar concentration and fitted to a sigmoidal dose-response curve with variable slope using GraphPad Prism 4 (GraphPad Software) to calculate EC₅₀ values.

| Binder | binding relative to P54AR4-83v2 parent [1] [ratio] | binding relative to P54AR4-83v2 parent [2] [ratio] | binding relative to P54AR4-83v2 parent [3] [ratio] | pMet inhibition in H441 cells IC50 [4] | Kd [5] [nM] | IC50 [6] [nM] | EC50 [7] [nM] | Inhibition of proliferation of U87-MG cells IC50 [4] [nM] |
| --- | --- | --- | --- | --- | --- | --- | --- | --- |
| P54AR4-83v2 T81C, NEM conjugate (designed binder, not shown: small tags and cut ends, N-ethyl maleimide (NEM) on Cys 81) LPAPKNLVVSEVTEDSARLSWDDPWAFYESFLIQYQESEKVGEAIVLTVPGSERSYDLTGLKPGTEYTVSIYGVHNVYKDCNMRGLPLSAIFTT | 0.9 | 1.02 | 0.5 | – | – | – | – | – |
| P54AR4-83v2 V41C, NEM conjugate (designed binder, not shown: small tags and cut ends, N-ethyl maleimide (NEM) on Cys 41) LPAPKNLVVSEVTEDSARLSWDDPWAFYESFLIQYQESEKCGEAIVLTVPGSERSYDLTGLKPGTEYTVSIYGVHNVYKDTNMRGLPLSAIFTT | 0.99 | 0.95 | 0.92 | – | – | – | – | – |
| P54AR4-83v2 V9C, NEM conjugate (designed binder, not shown: small tags and cut ends, N-ethyl maleimide (NEM) on Cys 9) LPAPKNLVCSEVTEDSARLSWDDPWAFYESFLIQYQESEKVGEAIVLTVPGSERSYDLTGLKPGTEYTVSIYGVHNVYKDTNMRGLPLSAIFTT | 1.03 | 0.93 | 0.94 | – | – | – | – | – |
| P54AR4-83v2 T93C, NEM conjugate (designed binder, not shown: small tags and cut ends, N-ethyl maleimide (NEM) on Cys 93) LPAPKNLVVSEVTEDSARLSWDDPWAFYESFLIQYQESEKVGEAIVLTVPGSERSYDLTGLKPGTEYTVSIYGVHNVYKDTNMRGLPLSAIFCT | 1.05 | 1.04 | 0.96 | – | – | – | – | – |
| P54AR4-83v2 V12C, NEM conjugate (designed binder, not shown: small tags and cut ends, N-ethyl maleimide (NEM) on Cys 12) LPAPKNLVVSECTEDSARLSWDDPWAFYESFLIQYQESEKVGEAIVLTVPGSERSYDLTGLKPGTEYTVSIYGVHNVYKDTNMRGLPLSAIFTT | 1.06 | 0.93 | 0.87 | – | – | – | – | – |
| P54AR4-83v2 V8C, NEM conjugate (designed binder, not shown: small tags and cut ends, N-ethyl maleimide (NEM) on Cys 8) LPAPKNLCVSEVTEDSARLSWDDPWAFYESFLIQYQESEKVGEAIVLTVPGSERSYDLTGLKPGTEYTVSIYGVHNVYKDTNMRGLPLSAIFTT | 1.03 | 0.9 | 0.96 | – | – | – | – | – |
| P54AR4-83v2 V74C, NEM conjugate (designed binder, not shown: small tags and cut ends, N-ethyl maleimide (NEM) on Cys 74) LPAPKNLVVSEVTEDSARLSWDDPWAFYESFLIQYQESEKVGEAIVLTVPGSERSYDLTGLKPGTEYTVSIYGCHNVYKDTNMRGLPLSAIFTT | 1.01 | 0.95 | 0.76 | – | – | – | – | – |
| P54AR4-83v2 W25C, NEM conjugate (designed binder, not shown: small tags and cut ends, N-ethyl maleimide (NEM) on Cys 25) LPAPKNLVVSEVTEDSARLSWDDPCAFYESFLIQYQESEKVGEAIVLTVPGSERSYDLTGLKPGTEYTVSIYGVHNVYKDTNMRGLPLSAIFTT | 0.64 | 0.7 | 0.38 | – | – | – | – | – |
| P54AR4-83v2 Y72C, NEM conjugate (designed binder, not shown: small tags and cut ends, N-ethyl maleimide (NEM) on Cys 72) LPAPKNLVVSEVTEDSARLSWDDPWAFYESFLIQYQESEKVGEAIVLTVPGSERSYDLTGLKPGTEYTVSICGVHNVYKDTNMRGLPLSAIFTT | 1 | 0.93 | 0.93 | – | – | – | – | – |
| P54AR4-83v2 V77C, NEM conjugate (designed binder, not shown: small tags and cut ends, N-ethyl maleimide (NEM) on Cys 77) LPAPKNLVVSEVTEDSARLSWDDPWAFYESFLIQYQESEKVGEAIVLTVPGSERSYDLTGLKPGTEYTVSIYGVHNCYKDTNMRGLPLSAIFTT | 0 | 0.03 | 0.03 | – | – | – | – | – |
| P54AR4-83v2 Y78C, NEM conjugate (designed binder, not shown: small tags and cut ends, N-ethyl maleimide (NEM) on Cys 78) LPAPKNLVVSEVTEDSARLSWDDPWAFYESFLIQYQESEKVGEAIVLTVPGSERSYDLTGLKPGTEYTVSIYGVHNVCKDTNMRGLPLSAIFTT | 0.63 | 0.68 | 0.31 | – | – | – | – | – |
| P54AR4-83v2 V49C, NEM conjugate (designed binder, not shown: small tags and cut ends, N-ethyl maleimide (NEM) on Cys 49) LPAPKNLVVSEVTEDSARLSWDDPWAFYESFLIQYQESEKVGEAIVLTCPGSERSYDLTGLKPGTEYTVSIYGVHNVYKDTNMRGLPLSAIFTT | 1.01 | 0.98 | 0.96 | – | – | – | – | – |
| P54AR4-83v2 Y28C, NEM conjugate (designed binder, not shown: small tags and cut ends, N-ethyl maleimide (NEM) on Cys 28) LPAPKNLVVSEVTEDSARLSWDDPWAFCESFLIQYQESEKVGEAIVLTVPGSERSYDLTGLKPGTEYTVSIYGVHNVYKDTNMRGLPLSAIFTT | 0.01 | 0.09 | 0 | – | – | – | – | – |
| P54AR4-83v2 V46C, NEM conjugate (designed binder, not shown: small tags and cut ends, N-ethyl maleimide (NEM) on Cys 46) LPAPKNLVVSEVTEDSARLSWDDPWAFYESFLIQYQESEKVGEAICLTVPGSERSYDLTGLKPGTEYTVSIYGVHNVYKDTNMRGLPLSAIFTT | 1.01 | 0.9 | 0.61 | – | – | – | – | – |
| P114AR7P95-D3 (designed binder, not shown: small tags and cut ends) LPAPKNLVVSRVTEDSARLSWTAPDAAFDSFWIRYFEFLGSGEAIVLTVPGSERSYDLTGLKPGTEYVVNIMGVKGGSISYPLSAIFTT | – | – | – | 4.6 nM | 0.3 | 0.2 | – | – |
| P114AR7P95-D4 (designed binder, not shown: small tags and cut ends) LPAPKNLVVSRVTEDSARLSWTAPDAAFDSFWIRYFEFLGSGEAIVLTVPGSERSYDLTGLKPGTEYVVQILGVKGGYISIPLSAIFTT | – | – | – | 19.5 nM | 0.4 | – | 1.4 | 19.4 |
| P114AR7P95-G7 (designed binder, not shown: small tags and cut ends) LPAPKNLVVSRVTEDSARLSWTAPDAAFDSFWIRYFELLSTGEAIVLTVPGSERSYDLTGLKPGTEYVVNIMGVKGGSISPPLSAIFTT | – | – | – | 659 nM | 20 | – | 11.3 | 692 |
| P114AR7P95-E3 (designed binder, not shown: small tags and cut ends) LPAPKNLVVSRVTEDSARLSWTAPDAAFDSFWIRYFEFLGSGEAIVLTVPGSERSYDLTGLKPGTEYVVQIMGVKGGTVSPPLSAIFTT | – | – | – | 205 nM | – | – | 3.2 | 209 |
| P114AR7P95-H8 (designed binder, not shown: small tags and cut ends) LPAPKNLVVSRVTEDSARLSWTAPDAAFDSFWIRYFEFVSKGEAIVLTVPGSERSYDLTGLKPGTEYVVNIMGVKGGSISPPLSAIFTT | – | – | – | 210 nM | 3.7 | – | 4.1 | 281 |
| P114AR7P95-B9 (designed binder, not shown: small tags and cut ends) LPAPKNLVVSRVTEDSARLSWTAPDAAFDSFWIRYFEFLGSGEAIVLTVPGSERSYDLTGLKPGTEYVVQILGVKGGSISVPLSAIFTT | – | – | – | 9.8 nM | – | 0.3 | – | 17.4 |
| P114AR7P92-F3 (designed binder, not shown: small tags and cut ends) LPAPKNLVVSRVTEDSARLSWTAPDAAFDSFWIRYFEFLGSGEAIVLTVPGSERSYDLTGLKPGTEYIVNIMGVKGGSISHPLSAIFTT | – | – | – | 8.3 nM | 0.4 | 0.2 | – | 2.7 |
| P114AR7P92-H5 (designed binder, not shown: small tags and cut ends) LPAPKNLVVSRVTEDSARLSWTAPDAAFDSFWIRYLEFLLGGEAIVLTVPGSERSYDLTGLKPGTEYVVQIMGVKGGTVSPPLSAIFTT | – | – | – | 766 nM | 11.6 | – | 22 | 672 |
| P114AR5P75-E9 (designed binder, not shown: small tags and cut ends) LPAPKNLVVSRVTEDSARLSWTAPDAAFDSFFIRYDEFLRSGEAIVLTVPGSERSYDLTGLKPGTEYWVTILGVKGGLVSTPLSAIFTT | – | – | – | 1.42 µM | 45.8 | 51.9 | – | 1190 |
| P114AR7P93-D11 (designed binder, not shown: small tags and cut ends) LPAPKNLVVSRVTEDSARLSWTAPDAAFDSFWIRYFEFLGSGEAIVLTVPGSERSYDLTGLKPGTEYVVGINGVKGGYISYPLSAIFTT | – | – | – | 16 nM | – | – | 2.3 | 14.4 |

Reference: patent US20210301025A1 (published 2021)
